Assay [1] addresses T1, recombinant MS4A4A soluble polypeptide JS5.
T1 construct: also called JS5.His
Put plainly: ELISA, 0.4 ug/ml antibody. For orientation: In an ELISA, binding on a coated surface is turned into a signal by an enzyme label.

Assay [2] addresses T2, human MS4A4A (human, UniProt Q96JQ5 1-239). Put plainly: FACS, U937-huMS4A4A, 5 ug/ml. The method, then: (§1) Anti-MS4A4A antibodies tested were either mouse IgGs purified from hybridoma supernatant or human IgG1 Fc chimeras produced recombinantly in Expi293 cells. Affinity binding to cells was determined as follows. Briefly, cells were harvested, washed, and labeled with Aqua Live/Dead for viability discrimination. After a wash with PBS, 2×10\hat{ }4 cells were aliquoted per well in 96-well U-bottom plates and incubated with 50 μL of purified anti-MS4A4A antibody at various concentrations (3× dilutions starting at 10 μg/mL) in FACS buffer (PBS+2% FBS+1 mM EDTA). After this primary incubation, the supernatant was removed via centrifugation, washed 2× with 150 μL of ice-cold FACS buffer, and incubated with the appropriate secondary antibody on ice for 15 minutes. Following the secondary antibody incubation, the cells were again washed 2× with ice-cold FACS buffer and resuspended in a final volume of 200 μL of FACS buffer. Flow cytometry analysis was performed on a FACSCanto system (BD Biosciences). Binding data was expressed as Median Fluorescent Intensity (MFI).
(§2) These experiments were performed using anti-MS4A4A antibodies at a concentration of 5 μg/ml and were assayed for cell binding by flow cytometry.
(In general: A flow cytometer gives signals particle by particle.)

For assay [3], the target named is T1, recombinant MS4A4A soluble polypeptide …. Put plainly: ELISA, 1 ug/ml antibody. The method, then:
(§3) Anti-MS4A4A antibodies of the present disclosure were tested for their ability to bind to the different recombinant MS4A4A soluble polypeptides, as described in Example 2, as follows. Nucleic acid encoding the VH and VL domains of humanized anti-MS4A4A antibodies of the present disclosure were cloned into pcDNA3.4 vector which contains either the human IgG1 heavy chain constant domain or human kappa constant domain. The humanized anti-MS4A4A antibodies were expressed in Expi293 cells and were purified by Mab select antibody purification resin (GE Healthcare Life Science, cat#17519902) following the manufacture's protocol. ELISA was performed to measure binding of anti-MS4A4A antibodies of the present disclosure the recombinant MS4A4A soluble polypeptides. 1 μg/ml biotinylated antigens were preincubated on the streptavidin-coated ELISA plates (Thermo Scientific, cat#PI15120) for 1 hour. Plates were washed 3 times, followed by the addition of antibodies (1 μg/ml, 0.33 μg/ml, and 0.11 μg/ml antibodies. Plates were incubated at room temperature with shaking for 1 hr, washed 3 times, then 1/2500 dilution of HRP conjugates goat anti human kappa antibodies added (SigmaAldrich cat#. A7164-1ML).

For assay [4] the target is unchanged. Put plainly: ELISA, 0.11 ug/ml antibody. Here is the method: as §3
Assay [5] shares this target. Put plainly: ELISA, 0.33 ug/ml antibody. Here is the method:
as §3

The target in assay [6] is T3, recombinant MS4A4A soluble polypeptide JS1.
T3 construct: also called JS1.His; loop grafted antigen
Put plainly: ELISA, 1 ug/ml antibody. The method, then:
as §3

Assay [7] concerns the target T2, human MS4A4A. Put plainly: FACS, U937-huMS4A4A, 5 ug/ml. The method, then: as §1, §2
The source holds these as a separate data set.

In assay [8] the target is FcγRIIIa receptor (V158 variant) (UniProt P08637 17-254). Put plainly: cell-based or functional assay.
FcγRIIIa receptor (V158 variant), sequence (P08637 other isoform, or with tags, fused parts or gaps mutant limits assumed): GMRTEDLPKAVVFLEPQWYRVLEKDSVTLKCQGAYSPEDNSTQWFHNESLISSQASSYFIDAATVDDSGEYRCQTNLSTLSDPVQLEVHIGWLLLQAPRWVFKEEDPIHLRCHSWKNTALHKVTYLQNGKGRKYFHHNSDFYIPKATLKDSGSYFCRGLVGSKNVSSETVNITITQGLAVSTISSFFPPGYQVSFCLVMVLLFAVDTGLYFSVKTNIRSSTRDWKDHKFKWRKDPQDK
The target of assay [9] is T4, FcγRIIa receptor (H131 variant) (UniProt P12318 34-317, limits assumed).
T4 sequence (looked up): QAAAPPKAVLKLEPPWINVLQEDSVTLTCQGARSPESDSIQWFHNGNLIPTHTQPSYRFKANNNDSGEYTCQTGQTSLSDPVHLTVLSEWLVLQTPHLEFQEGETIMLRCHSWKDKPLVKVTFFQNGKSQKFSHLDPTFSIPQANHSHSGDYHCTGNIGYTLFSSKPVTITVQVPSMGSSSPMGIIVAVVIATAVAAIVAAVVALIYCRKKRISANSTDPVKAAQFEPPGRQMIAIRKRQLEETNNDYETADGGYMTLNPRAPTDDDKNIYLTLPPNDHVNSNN
Put plainly: cell-based or functional assay.

The target in assay [10] is T5, negative control polypeptide JS4.
T5 construct: negative control for JS1; also called JS4.His
Put plainly: ELISA, biotin-antigen on streptavidin plate. The method, then: as §3

Assay [11] has as its target T1, recombinant MS4A4A soluble polypeptide …. Put plainly: ELISA, biotin-antigen on streptavidin plate. Here is the method: as §3
For assay [12], the target named is T6, recombinant MS4A4A soluble polypeptide JS6.
T6 construct: also called JS6.His
Put plainly: ELISA, biotin-antigen on streptavidin plate. Here is the method: as §3

Assay [13] concerns the target T7, negative control polypeptide JS10.
T7 construct: negative control for JS5 and JS6; also called JS10.His
Put plainly: ELISA, biotin-antigen on streptavidin plate. Here is the method: as §3

Assay [14] has as its target T3, recombinant MS4A4A soluble polypeptide …. Put plainly: ELISA, biotin-antigen on streptavidin plate. The method, then:
as §3

Residue numbers refer to the chain shown, from its start. Read-outs that look alike come from different tables or passages of the source.

B1: anti-MS4A4A antibody 4A-350 (antibody, V domains shown)
VH: QVQLVQSGSELKKPGASVKVSCKASGYIFTSYGLSWVRQAPGQGLEWMGWINTYSGVPTYAQGFTGRFVFSLDTSVSTAYLQISSLKAEDTAVYYCARTLADYWGQGTLVTVSS
VL: DVVMTQSPLSLPVTLGQPASISCKSSQSLLYSDGKTYLSWFQQRPGQSPRRLIYLVSKLDSGVPDRFSGSGSGTDFTLKISRVEAEDVGVYYCWQGIDFHQTFGGGTKVEIK
notes: full human IgG
As for B1, in assay [1], the OD450 is 0.939. This molecule came in with an MFI with human MS4A4A [2] of 11600.

B2: anti-MS4A4A antibody 4A-376 (antibody, V domains shown)
VH: B1 VH with T99S, L100M
VL: B1 VL with Q27R
notes: full human IgG
As for B2, the results for the “ELISA OD” value in assay [3], in [4] and in assay [5] were 1.04, 0.83 and 1.03, respectively. The OD450 in assay [1] is 0.977. For the same molecule, in the assay with human MS4A4A [2], the MFI amounted to 16700.

B3: anti-MS4A4A antibody 4A-360 (antibody, V domains shown)
VH: B1 VH
VL: B1 VL with S26G, K58R
notes: full human IgG
Take B3: in [1], the OD450 turned out to be 0.797. Besides, in the assay with human MS4A4A [2], the MFI stood at 10300.

B4: anti-MS4A4A antibody 4A-358 (antibody, V domains shown)
VH: B1 VH
VL: B1 VL with D98R
notes: full human IgG
As to B4, the OD450 in assay [1] came to 0.901. The molecule further returned an MFI in the assay with human MS4A4A [2] of 12100.

B5: anti-MS4A4A antibody 4A-362 (antibody, V domains shown)
VH: B1 VH
VL: B1 VL with K58R
notes: full human IgG
With B5, in assay [1], the OD450 worked out at 0.908. The molecule also gave an MFI with human MS4A4A [2] of 10000.

B6: anti-MS4A4A antibody 4A-369 (antibody, V domains shown)
VH: B1 VH with I28T, V37I, L100M, A101V
VL: B1 VL with D98R
notes: full human IgG
For the molecule B6, in assay [1], the OD450 was 0.852. Besides, in the assay with human MS4A4A [2], the MFI was determined as 10100.

B7: anti-MS4A4A antibody 4A-351 (antibody, V domains shown)
VH: B1 VH
VL: B1 VL with Q27R
notes: full human IgG
For the molecule B7, the “ELISA OD” value was determined as 0.953 in assay [3], 0.816 in [4] and 0.898 in assay [5]. Besides, in assay [1], the OD450 came to 0.99. The MFI in the assay with human MS4A4A [2] was 12200.

B8: anti-MS4A4A antibody 4A-332 (antibody, human IgG1, V domains shown)
VH: B1 VH with T99S, A101V
VL: B1 VL
notes: humanized 4A-21; human IgG1/kappa
Take B8: the “ELISA OD” value in assay [3] amounted to 0.997; in [4], 0.677; in assay [5], 0.851. The results for the OD450 in assay [6] and in assay [1] were 1.91 and 0.821, respectively. Moreover, the MFI with human MS4A4A [7] was found to be 324; with human MS4A4A [2], 8820.

B9: anti-MS4A4A antibody 4A-373 (antibody, V domains shown)
VH: B1 VH with A101V
VL: B1 VL with Q27R
notes: full human IgG
Consider B9, for which, in assay [1], the OD450 was found to be 0.907. The molecule also yielded an MFI with human MS4A4A [2] of 11900.

B10: anti-MS4A4A antibody 4A-302 (antibody, human IgG1, V domains shown)
VH: QVQLVQSGAEVKKPGASVKVSCKASGYTFTNYWMQWVRQAPGQGLEWMGATHPGHGDTRYAQKFQGRVTMTRDTSTSTVYMELSSLRSEDTAVYYCAREEVYYGFRSYWYFDVWGRGTLVTVSS
VL: EIVLTQSPATLSLSPGERATLSCRASESVDNYGVSFMNWYQQKPGQAPRLLIYGASNQGSGIPARFSGSGSGTDFTLTISSLEPEDFAVYYCQQSKEVPPTFGGGTKVEIK
notes: human IgG1/kappa
As for B10, the “ELISA OD” value in assay [3] is 0.128; in [4], 0.091; in assay [5], 0.103. In addition, in assay [6], the OD450 was found to be 0.127. Moreover, the MFI with human MS4A4A [7] was 113; with human MS4A4A [2], 24400.

B11: anti-MS4A4A antibody 4A-314 (antibody, V domains shown)
VH: B10 VH with A50T, H52L
VL: B10 VL with F36R
notes: full human IgG
In the case of B11, the “ELISA OD” value in [3] worked out at 1.14; in [4] it was 0.399; in assay [5] it was 0.682. Besides, the MFI with human MS4A4A [2] stood at 15300.

B12: anti-MS4A4A antibody 4A-312 (antibody, V domains shown)
VH: B10 VH with Y102D
VL: B10 VL with G59Q
notes: full human IgG
Regarding B12, the “ELISA OD” value worked out at 0.184 in assay [3], 0.097 in assay [4] and 0.11 in assay [5]. Further, the MFI with human MS4A4A [2] was found to be 17700.

B13: anti-MS4A4A antibody 4A-313 wildtype (WT) huIgG1 (antibody)
heavy: not shown
light: EIVLTQSPATLSLSPGERATLSCRASESVDNYGVSRMNWYQQKPGQAPRLLIYGASNQGSGIPARFSGSGSGTDFTLTISSLEPEDFAVYYCQQSKEVPPTFGGGTKVEIKRTVAAPSVFIFPPSDEQLKSGTASVVCLLNNFYPREAKVQWKVDNALQSGNSQESVTEQDSKDSTYSLSSTLTLSKADYEKHKVYACEVTHQGLSSPVTKSFNRGEC
notes: also called 4A-313 WT huIgG1; 4A-313.WT
As for B13, the “ELISA OD” value in assay [3] came out at 1.26. In assay [8], the “luminescence, ADCC reporter, 3.048316 ng/mL” value came to 346; the “luminescence, ADCC reporter, 9.144947 ng/mL” value was determined as 367; the “luminescence, ADCC reporter, 27.43484 ng/mL” value came to 473; the “luminescence, ADCC reporter, 82.30453 ng/mL” value worked out at 839. Further, in assay [8], the “luminescence, ADCC reporter, 246.9136 ng/mL” value came to 2060; the “luminescence, ADCC reporter, 740.7407 ng/mL” value was 4350; the “luminescence, ADCC reporter, 2,222.222 ng/mL” value came to 5130; the “luminescence, ADCC reporter, 6,666.667 ng/mL” value is 4890. Also, in [8], the “luminescence, ADCC reporter, 20,000 ng/mL” value was found to be 4400. In assay [4], the “ELISA OD” value is 0.741. In addition, the “ELISA OD” value in assay [5] stood at 1.05. In [9], the “luminescence, ADCP reporter, 3.048316 ng/mL” value stood at 48; the “luminescence, ADCP reporter, 9.144947 ng/mL” value worked out at 54; the “luminescence, ADCP reporter, 27.43484 ng/mL” value was determined as 80; the “luminescence, ADCP reporter, 82.30453 ng/mL” value came out at 64. In addition, in [9], the “luminescence, ADCP reporter, 246.9136 ng/mL” value was determined as 98; the “luminescence, ADCP reporter, 740.7407 ng/mL” value was 85; the “luminescence, ADCP reporter, 2,222.222 ng/mL” value turned out to be 128; the “luminescence, ADCP reporter, 6,666.667 ng/mL” value is 403. In addition, the “luminescence, ADCP reporter, 20,000 ng/mL” value in [9] was found to be 455. This molecule also registered an MFI with human MS4A4A [2] of 41800.

B14: anti-MS4A4A antibody 4A-18 (antibody, V domains shown)
VH: QVQLQQPGTELVKPGASVKLSCKASGYTFTSYWIHWVKQRPGQGLEWIGNINPTNGGTNYNERFKSKATLTVDKSSSTAYMQLSSLTSEDSAVYYCARAYYYGSSLFAYWGQGTLVTVSS
VL: DIVMTQSQKFMSTTVGDRVSITCKASQNVGTAVAWSQQKPGQSPKLLIYSASYRHTGVPDRFTGSGSGTDFTLTITNMQSEDLADYFCQQYSTYPWTFGGGTKLEIK
notes: murine parental; tested as mouse IgG1 or as human IgG1 Fc chimera (hFc), told under assay; also called 4A-18.hFc
For B14, the “ELISA OD” value in [10] amounted to 0.098; in [11], 0.099; in assay [12], 0.105; in assay [13], 0.092; in assay [14] it was 0.146. In the assay with human MS4A4A [7], this molecule registered an MFI of 382.
